# US10828326B2, “Compositions and methods for treating and preventing venom related poisoning” (priority 2015, dated 2020)
# Test system: human plasma
# Assay: Thrombelastography of human plasma exposed to Crotalus atrox venom and/or tPA (Example II)
# Assay type: biochemical
# Settings: 0.5 μg/ml venom 5 min and/or 100 IU/ml tPA
# Procedure: Two hundred mg of lyophilized, pooled venom was obtained from four western diamondback rattlesnakes (Crotalus atrox) for experimentation. Venom was reconstituted in calcium-free phosphate buffered saline (PBS, Sigma-Aldrich, Saint Louis, Mo., USA) at a concentration of 20 mg/ml, aliquoted, and then stored at −80° C. until experimentation at the University of Arizona.
# Pooled normal plasma (George King Bio-Medical, Overland Park, Kans., USA) anticoagulated with sodium citrate was rapidly thawed at 37° C. and used for experimentation. To assess the effects of pretreatment of antifibrinolytic plasma proteins with iron, CO, or both, 1% additions of PBS, ferric chloride (FeCl3, 99.9% pure, Sigma-Aldrich, Saint Louis, Mo., USA) in PBS, or CORM-2 (tricarbonyldichlororuthenium (II) dimer, a CO releasing molecule, Sigma-Aldrich, Saint Louis, Mo., USA) dissolved in dimethyl sulfoxide (DMSO, Sigma-Aldrich, Saint Louis, Mo., USA) were used. […] Plasma was exposed to these various agents for at least 5 min prior to incubations with venom.
# The final volume for all subsequently described plasma sample mixtures was 359.4 μl. […] The following elastic modulus-based parameters previously described (see, Nielsen V G, Pretorius E. Blood Coagul Fibrinolysis 2014; 25:695-702) were determined: time to maximum rate of thrombus generation (TMRTG): this is the time interval (min) observed prior to maximum speed of clot growth; maximum rate of thrombus generation (MRTG): this is the maximum velocity of clot growth observed (dynes/cm^2/sec); total thrombus generation (TTG, dynes/cm^2), the final viscoelastic resistance observed after clot formation; time to maximum rate of lysis (TMRL, min), maximum rate of lysis (MRL, dynes/cm^2/sec) and CLT (min). […]
# [1] = vs control conditions (combination: vs all other conditions)
molecule,measurement,setting,value
"tPA: tissue type plasminogen activator, 580 IU/μg, Genentech; 100 IU/ml final concentration (protein, UniProt P00750 36-562, looked up) Tissue-type plasminogen …: SYQVICRDEKTQMIYQQHQSWLRPVLRSNRVEYCWCNSGRAQCHSVPVKSCSEPRCFNGGTCQQALYFSDFVCQCPEGFAGKCCEIDTRATCYEDQGISYRGTWSTAESGAECTNWNSSALAQKPYSGRRPDAIRLGLGNHNYCRNPDRDSKPWCYVFKAGKYSSEFCSTPACSEGNSDCYFGNGSAYRGTHSLTESGASCLPWNSMILIGKVYTAQNPSAQALGLGKHNYCRNPDGDAKPWCHVLKNRRLTWEYCDVPSCSTCGLRQYSQPQFRIKGGLFADIASHPWQAAIFAKHRRSPGERFLCGGILISSCWILSAAHCFQERFPPHHLTVILGRTYRVVPGEEEQKFEVEKYIVHKEFDDDTYDNDIALLQLKSDSSRCAQESSVVRTVCLPPADLQLPDWTECELSGYGKHEALSPFYSERLKEAHVRLYPSSRCTSQHLLNRTVTDNMLCAGDTRSGGPQANLHDACQGDSGGPLVCLNDGRMTLVGIISWGLGCGQKDVPGVYTKVTNYLDWIRDNMRP",maximum rate of thrombus generation (MRTG),[1],did not decrease
same,total thrombus generation (TTG),[1],significantly decreased
same,time to maximum rate of thrombus generation (TMRTG),vs control conditions (combination: vs any other condition),did not prolong
